Results from US20260174833A1.

How the values were obtained:
TGFβ1 (R&D systems) = TGFβ1 (R&D systems) (UniProt P01137); test: cell-based or functional assay
[1] = biological target: IL2Rβ and common γ chain on 32Dβ cells; test: cell-based or functional assay

UniProt P01137, sequence (P01137 279-390 limits assumed): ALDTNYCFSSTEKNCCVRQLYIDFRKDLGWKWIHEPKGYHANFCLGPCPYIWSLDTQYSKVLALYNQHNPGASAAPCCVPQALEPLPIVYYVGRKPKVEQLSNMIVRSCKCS

TGFR-Fc (R&D Systems) (from UniProt P37173 24-159) (Fc fusion)
IC50, inhibition of TGFβ1 activity in HEK-Blue TGFβ cells (QUANTI-Blue OD 620-655 nM) (TGFβ1 (R&D systems)): 0.461 nM

recombinant IL-15 (from UniProt P40933 49-162) (ligand)
EC50, 32Dβ cell proliferation (WST1, absorbance at 450 nM) [1]: 0.0106 nM
